Tests used:
[1] = biological target: HLA-B27 homodimer (B27 H chain dimer, β2m-free) (human); assay: SPR
[2] = biological target: LILRB2 on transduced Baf3 cells (UniProt Q8N423); assay: flow cytometry on cells

Row | Substance | Kd [1] | percent reduction of bound B27 Flu NP heterotrimer tetramer over 1 hour [2]
1 | LILRB2 incorporating the two immunoglobulin-like domains D1 and D2 (domain or fragment) | 2.5 µM | 
2 | HLA-B27 homodimer (B27 H chain dimer, β2m-free) (complex) |  | 43%

From article PMC3622243
